Experimental data reported in US10562947B2, “Compositions and methods for preventing or treating diseases, conditions or processes characterized by aberrant fibroblast proliferation and extracellular matrix deposition” (MOERAE MATRIX, INC., priority 2011, dated 2020).
Where a SMILES comes first, the peptide text is derived from it.

What was measured:
Assay in all cases: Kinase Profiling Assay
Assay type in all cases: biochemical
[1] = target: T1, CHK1(h) (Homo sapiens, UniProt O14757); details: 100 μM peptide
T1 sequence (O14757 1-476): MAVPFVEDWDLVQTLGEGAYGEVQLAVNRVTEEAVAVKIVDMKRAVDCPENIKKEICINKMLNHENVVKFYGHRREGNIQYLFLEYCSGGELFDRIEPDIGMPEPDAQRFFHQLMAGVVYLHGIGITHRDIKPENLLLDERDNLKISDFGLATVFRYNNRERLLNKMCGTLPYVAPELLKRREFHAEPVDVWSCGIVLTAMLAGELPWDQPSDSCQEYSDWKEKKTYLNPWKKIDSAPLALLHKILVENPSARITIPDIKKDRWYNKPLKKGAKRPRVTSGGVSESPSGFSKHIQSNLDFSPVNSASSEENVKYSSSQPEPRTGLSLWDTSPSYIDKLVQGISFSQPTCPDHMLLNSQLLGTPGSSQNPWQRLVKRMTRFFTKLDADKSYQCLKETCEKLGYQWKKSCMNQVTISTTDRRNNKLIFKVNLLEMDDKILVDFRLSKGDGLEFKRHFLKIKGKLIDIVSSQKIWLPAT
How it was run: (§1)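 Each kinase in a 266-member human panel is assayed, in duplicate, for activity in the presence of MK2 inhibitory peptides to gauge specificity.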

[2] = target: MAPKAP-K3(h) (Homo sapiens, UniProt Q16644); details: for MAPKAP-K3(h) % activity: 100 μM peptide
Chain of MAPKAP-K3(h) (Q16644 whole entry): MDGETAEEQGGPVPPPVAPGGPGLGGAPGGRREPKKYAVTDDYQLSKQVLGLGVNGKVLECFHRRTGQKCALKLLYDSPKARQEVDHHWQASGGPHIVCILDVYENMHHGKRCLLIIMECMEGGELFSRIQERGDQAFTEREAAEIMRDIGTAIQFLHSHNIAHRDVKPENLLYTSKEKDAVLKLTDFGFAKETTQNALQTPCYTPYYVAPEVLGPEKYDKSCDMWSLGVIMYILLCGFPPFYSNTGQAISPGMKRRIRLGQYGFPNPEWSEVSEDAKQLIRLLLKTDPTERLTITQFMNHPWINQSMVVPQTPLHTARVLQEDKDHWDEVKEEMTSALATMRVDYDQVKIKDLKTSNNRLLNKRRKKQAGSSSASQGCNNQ
How it was run: as §1

[3] = target: NEK6(h) (Homo sapiens, UniProt Q9HC98); details: 100 μM peptide
Chain of NEK6(h) (Q9HC98 whole entry): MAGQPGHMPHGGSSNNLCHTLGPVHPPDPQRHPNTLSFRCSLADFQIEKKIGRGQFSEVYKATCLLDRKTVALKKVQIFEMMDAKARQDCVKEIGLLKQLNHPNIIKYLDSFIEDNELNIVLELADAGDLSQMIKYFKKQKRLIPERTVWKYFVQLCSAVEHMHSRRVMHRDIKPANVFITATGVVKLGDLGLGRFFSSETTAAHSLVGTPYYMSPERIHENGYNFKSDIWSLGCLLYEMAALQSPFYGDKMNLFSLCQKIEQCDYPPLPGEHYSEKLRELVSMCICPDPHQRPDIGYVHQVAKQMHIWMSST
How it was run: as §1

[4] = target: CK2(h) (Homo sapiens, UniProt P68400); details: 100 μM peptide
Chain of CK2(h) (P68400 whole entry): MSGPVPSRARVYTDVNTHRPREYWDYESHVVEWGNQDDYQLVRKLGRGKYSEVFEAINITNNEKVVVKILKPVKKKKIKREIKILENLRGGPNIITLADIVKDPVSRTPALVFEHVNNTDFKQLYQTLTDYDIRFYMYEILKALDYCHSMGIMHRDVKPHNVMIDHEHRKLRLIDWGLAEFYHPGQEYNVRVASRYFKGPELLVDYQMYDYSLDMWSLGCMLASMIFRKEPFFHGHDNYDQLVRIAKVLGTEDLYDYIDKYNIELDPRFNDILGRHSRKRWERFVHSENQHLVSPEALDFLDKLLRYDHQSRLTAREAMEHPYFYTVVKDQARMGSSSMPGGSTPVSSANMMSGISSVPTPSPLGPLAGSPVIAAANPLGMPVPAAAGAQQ
Chain of CK2(h) (P67870 whole entry partner): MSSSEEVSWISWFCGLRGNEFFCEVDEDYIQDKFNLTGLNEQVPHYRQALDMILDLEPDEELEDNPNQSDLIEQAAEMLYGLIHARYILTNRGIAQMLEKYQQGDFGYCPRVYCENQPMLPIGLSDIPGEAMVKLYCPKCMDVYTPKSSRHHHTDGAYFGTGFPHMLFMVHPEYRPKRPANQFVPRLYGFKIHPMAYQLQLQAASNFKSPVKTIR
How it was run: as §1

[5] = target: PAK4(h) (Homo sapiens, UniProt O96013); details: 100 μM peptide
Chain of PAK4(h) (O96013 whole entry): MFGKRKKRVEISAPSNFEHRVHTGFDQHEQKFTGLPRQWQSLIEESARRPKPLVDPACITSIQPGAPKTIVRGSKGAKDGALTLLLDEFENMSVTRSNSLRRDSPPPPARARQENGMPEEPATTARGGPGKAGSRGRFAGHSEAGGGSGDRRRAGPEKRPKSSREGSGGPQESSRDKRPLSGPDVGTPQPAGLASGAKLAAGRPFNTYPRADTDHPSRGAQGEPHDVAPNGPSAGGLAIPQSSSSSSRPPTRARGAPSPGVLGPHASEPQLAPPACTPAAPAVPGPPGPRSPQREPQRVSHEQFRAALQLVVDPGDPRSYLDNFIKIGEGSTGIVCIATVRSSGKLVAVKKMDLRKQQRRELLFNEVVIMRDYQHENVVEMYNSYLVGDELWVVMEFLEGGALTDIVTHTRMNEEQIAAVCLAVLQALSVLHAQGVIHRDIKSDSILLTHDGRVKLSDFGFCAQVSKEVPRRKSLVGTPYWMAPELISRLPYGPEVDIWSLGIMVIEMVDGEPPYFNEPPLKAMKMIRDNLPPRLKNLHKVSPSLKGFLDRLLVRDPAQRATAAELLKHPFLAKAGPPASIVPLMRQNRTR
How it was run: as §1

[6] = target: T2, SGK2(h) (Homo sapiens, UniProt Q9HBY8); details: 100 μM peptide
T2 sequence (Q9HBY8 1-367): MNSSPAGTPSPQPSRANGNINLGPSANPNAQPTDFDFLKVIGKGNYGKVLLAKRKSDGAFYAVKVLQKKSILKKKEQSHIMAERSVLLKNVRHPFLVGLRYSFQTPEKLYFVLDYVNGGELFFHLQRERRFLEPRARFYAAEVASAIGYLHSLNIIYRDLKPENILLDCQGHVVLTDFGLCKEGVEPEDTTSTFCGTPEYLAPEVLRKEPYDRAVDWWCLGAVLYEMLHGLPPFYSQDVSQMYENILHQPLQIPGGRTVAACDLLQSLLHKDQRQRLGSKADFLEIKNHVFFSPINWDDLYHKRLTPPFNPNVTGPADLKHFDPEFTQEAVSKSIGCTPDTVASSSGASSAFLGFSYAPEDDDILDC
How it was run: as §1

[7] = target: Src(T341M)(h) (Homo sapiens, UniProt P12931, T341M); details: 100 μM peptide
How it was run: as §1

[8] = target: Fms(h) (Homo sapiens, UniProt P07333); details: 100 μM peptide
How it was run: as §1

[9] = target: T3, NEK2(h) (Homo sapiens, UniProt P51955); details: 100 μM peptide
T3 sequence (P51955 1-445): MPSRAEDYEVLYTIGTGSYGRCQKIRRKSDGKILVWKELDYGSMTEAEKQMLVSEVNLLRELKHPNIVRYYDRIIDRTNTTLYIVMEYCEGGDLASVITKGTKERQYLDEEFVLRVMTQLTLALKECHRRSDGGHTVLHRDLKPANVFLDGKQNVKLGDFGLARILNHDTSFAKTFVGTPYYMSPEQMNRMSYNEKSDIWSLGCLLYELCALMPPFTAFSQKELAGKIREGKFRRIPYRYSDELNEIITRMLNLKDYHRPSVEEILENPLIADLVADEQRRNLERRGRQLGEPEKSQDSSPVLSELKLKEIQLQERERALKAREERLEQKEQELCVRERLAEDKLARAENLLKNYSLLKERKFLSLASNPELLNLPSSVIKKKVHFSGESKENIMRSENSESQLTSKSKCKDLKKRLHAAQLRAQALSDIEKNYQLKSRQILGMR
How it was run: as §1

[10] = target: mTOR(h) (Homo sapiens, UniProt P42345); details: 100 μM peptide
How it was run: as §1

[11] = target: Met(D1246N)(h) (Homo sapiens, UniProt P08581, D1228N); details: 100 μM peptide
How it was run: as §1

[12] = target: Axl(h) (Homo sapiens, UniProt P30530); details: 100 μM peptide
How it was run: as §1

[13] = target: cKit(D816V)(h) (Homo sapiens, UniProt P10721, D816V); details: 100 μM peptide
How it was run: as §1

[14] = target: Flt1(h) (Homo sapiens, UniProt P17948); details: 100 μM peptide
Chain of Flt1(h) (P17948 27-1338): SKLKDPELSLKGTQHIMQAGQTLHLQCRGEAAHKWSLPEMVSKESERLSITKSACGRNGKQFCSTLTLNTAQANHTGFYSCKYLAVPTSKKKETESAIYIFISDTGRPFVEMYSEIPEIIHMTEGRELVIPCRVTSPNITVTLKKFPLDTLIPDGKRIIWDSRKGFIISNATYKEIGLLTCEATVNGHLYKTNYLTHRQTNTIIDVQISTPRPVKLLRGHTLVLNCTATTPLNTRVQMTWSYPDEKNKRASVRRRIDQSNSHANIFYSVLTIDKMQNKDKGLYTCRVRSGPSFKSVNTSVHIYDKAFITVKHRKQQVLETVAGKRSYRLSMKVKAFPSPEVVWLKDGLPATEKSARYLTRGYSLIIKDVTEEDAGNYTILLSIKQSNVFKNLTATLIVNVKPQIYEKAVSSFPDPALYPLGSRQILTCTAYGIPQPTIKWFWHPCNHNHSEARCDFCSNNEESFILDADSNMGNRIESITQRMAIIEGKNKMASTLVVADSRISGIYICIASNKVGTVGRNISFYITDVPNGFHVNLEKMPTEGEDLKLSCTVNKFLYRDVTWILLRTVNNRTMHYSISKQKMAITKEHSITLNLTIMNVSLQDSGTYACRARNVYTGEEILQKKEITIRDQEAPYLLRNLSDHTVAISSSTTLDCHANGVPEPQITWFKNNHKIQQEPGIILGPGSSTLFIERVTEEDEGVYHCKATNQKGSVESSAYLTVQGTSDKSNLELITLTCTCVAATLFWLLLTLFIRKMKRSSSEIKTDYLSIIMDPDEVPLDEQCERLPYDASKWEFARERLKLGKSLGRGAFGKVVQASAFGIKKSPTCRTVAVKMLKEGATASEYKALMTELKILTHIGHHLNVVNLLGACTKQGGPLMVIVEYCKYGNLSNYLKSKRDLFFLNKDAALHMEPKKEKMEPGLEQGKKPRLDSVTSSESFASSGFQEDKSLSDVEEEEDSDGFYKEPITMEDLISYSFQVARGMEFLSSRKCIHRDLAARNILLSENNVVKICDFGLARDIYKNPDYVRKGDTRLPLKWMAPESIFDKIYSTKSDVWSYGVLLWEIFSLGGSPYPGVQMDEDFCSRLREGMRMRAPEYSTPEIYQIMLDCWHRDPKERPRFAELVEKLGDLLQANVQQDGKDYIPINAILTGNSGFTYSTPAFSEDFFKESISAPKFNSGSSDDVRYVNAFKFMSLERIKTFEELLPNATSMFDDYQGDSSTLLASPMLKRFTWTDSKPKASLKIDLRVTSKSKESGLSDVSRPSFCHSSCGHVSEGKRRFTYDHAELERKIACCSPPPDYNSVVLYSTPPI
How it was run: as §1

[15] = target: F1t3(h) (Homo sapiens, UniProt P36888); details: 100 μM peptide
How it was run: as §1

[16] = target: MSK2(h) (Homo sapiens, UniProt O75676); details: 100 μM peptide
Chain of MSK2(h) (O75676 whole entry): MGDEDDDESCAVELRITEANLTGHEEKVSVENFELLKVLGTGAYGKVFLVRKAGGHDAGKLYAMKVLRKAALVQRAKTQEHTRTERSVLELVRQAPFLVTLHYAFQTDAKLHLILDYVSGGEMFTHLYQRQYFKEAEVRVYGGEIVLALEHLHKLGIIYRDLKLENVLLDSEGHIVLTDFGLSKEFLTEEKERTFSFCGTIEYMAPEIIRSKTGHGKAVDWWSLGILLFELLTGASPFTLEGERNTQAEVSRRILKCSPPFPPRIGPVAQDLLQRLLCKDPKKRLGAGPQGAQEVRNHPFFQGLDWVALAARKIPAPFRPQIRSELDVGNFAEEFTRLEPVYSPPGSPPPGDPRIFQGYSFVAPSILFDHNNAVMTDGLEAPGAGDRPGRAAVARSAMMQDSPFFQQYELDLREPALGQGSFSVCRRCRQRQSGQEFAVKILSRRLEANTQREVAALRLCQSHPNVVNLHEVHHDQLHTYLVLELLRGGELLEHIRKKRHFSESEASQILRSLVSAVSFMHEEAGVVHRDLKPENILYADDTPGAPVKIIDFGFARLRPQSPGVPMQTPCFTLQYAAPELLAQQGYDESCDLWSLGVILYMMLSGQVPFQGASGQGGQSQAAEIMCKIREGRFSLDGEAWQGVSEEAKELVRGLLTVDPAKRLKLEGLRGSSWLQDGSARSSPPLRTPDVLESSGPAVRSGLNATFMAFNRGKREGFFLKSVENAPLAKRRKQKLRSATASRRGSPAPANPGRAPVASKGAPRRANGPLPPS
How it was run: as §1

[17] = target: PDGFRα(h) (Homo sapiens, UniProt P16234); details: 100 μM peptide
Chain of PDGFRα(h) (P16234 24-1089): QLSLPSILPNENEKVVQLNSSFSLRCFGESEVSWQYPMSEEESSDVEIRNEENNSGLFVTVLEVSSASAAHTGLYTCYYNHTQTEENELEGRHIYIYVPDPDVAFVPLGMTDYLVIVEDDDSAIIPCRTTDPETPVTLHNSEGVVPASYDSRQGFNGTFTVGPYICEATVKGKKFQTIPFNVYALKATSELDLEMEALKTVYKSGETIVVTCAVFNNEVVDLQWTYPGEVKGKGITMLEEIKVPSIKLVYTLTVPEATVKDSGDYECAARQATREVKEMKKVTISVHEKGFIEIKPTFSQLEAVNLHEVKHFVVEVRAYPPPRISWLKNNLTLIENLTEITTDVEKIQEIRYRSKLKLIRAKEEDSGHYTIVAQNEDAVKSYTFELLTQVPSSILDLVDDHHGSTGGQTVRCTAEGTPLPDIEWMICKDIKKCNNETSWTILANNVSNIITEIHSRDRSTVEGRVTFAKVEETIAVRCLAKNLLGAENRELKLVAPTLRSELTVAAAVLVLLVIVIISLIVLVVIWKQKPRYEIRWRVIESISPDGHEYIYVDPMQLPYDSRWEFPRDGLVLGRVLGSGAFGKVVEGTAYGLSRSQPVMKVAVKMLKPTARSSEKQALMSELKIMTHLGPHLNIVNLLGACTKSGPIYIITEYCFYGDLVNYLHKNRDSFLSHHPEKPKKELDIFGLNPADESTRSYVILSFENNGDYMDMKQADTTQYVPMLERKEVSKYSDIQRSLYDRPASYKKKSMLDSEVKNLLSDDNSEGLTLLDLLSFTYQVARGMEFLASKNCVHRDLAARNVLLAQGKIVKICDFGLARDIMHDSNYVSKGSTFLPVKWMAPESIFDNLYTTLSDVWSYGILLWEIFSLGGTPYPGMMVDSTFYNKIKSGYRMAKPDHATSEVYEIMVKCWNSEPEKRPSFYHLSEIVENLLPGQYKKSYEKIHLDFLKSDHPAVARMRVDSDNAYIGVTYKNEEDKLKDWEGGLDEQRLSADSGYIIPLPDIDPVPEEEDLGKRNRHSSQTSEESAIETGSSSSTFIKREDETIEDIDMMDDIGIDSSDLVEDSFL
How it was run: as §1

[18] = target: Met(Y1248D)(h) (Homo sapiens, UniProt P08581, Y1230D); details: 100 μM peptide
How it was run: as §1

Row | Molecule | CHK1(h) % activity [1] [%] | MAPKAP-K3(h) % activity [2] [%] | NEK6(h) % activity [3] [%] | CK2(h) % activity [4] [%] | PAK4(h) % activity [5] [%] | SGK2(h) % activity [6] [%] | Src(T341M)(h) % activity [7] [%] | Fms(h) % activity [8] [%] | NEK2(h) % activity [9] [%] | mTOR(h) % activity [10] [%] | Met(D1246N)(h) % activity [11] [%] | Axl(h) % activity [12] [%] | cKit(D816V)(h) % activity [13] [%] | Flt1(h) % activity [14] [%] | F1t3(h) % activity [15] [%] | MSK2(h) % activity [16] [%] | PDGFRα(h) % activity [17] [%] | inhibition at 100 µM ([2]; read-out: inhibition of kinase activity of MK3) [%] | Met(Y1248D)(h) % activity [18] [%]
1 | FAKLAARLYRKALARQLGVAA [MMI-0300] | 91 | 3 | 82 | 90 | 94 | 56 | 70 | 45 | 78 | 91 | 82 | 52 | 60 | 69 | 84 | 56 | 65 |  | 
2 | CC(C)C[C@H](NC(=O)[C@H](C)NC(=O)[C@H](CCCCN)NC(=O)[C@H](C)NC(=O)[C@H](CCCNC(=N)N)NC(=O)[C@H](C)NC(=O)[C@H](CCC(N)=O)NC(=O)[C@H](CCCNC(=N)N)NC(=O)[C@H](C)NC(=O)[C@H](C)NC(=O)[C@H](C)NC(=O)[C@H](CCCNC(=N)N)NC(=O)[C@H](C)NC(=O)[C@@H](N)Cc1ccc(O)cc1)C(=O)N[C@@H](C)C(=O)N[C@@H](CCCNC(=N)N)C(=O)N[C@@H](CCC(N)=O)C(=O)N[C@@H](CC(C)C)C(=O)NCC(=O)N[C@H](C(=O)N[C@@H](C)C(=O)N[C@@H](C)C(=O)O)C(C)C [MMI-0100] (H-YARAAARQARAKALARQLGVAA-OH; N-terminus and C-terminus assumed) |  |  |  |  |  |  |  |  |  |  |  |  |  |  |  |  |  | > 65 | 
3 | KAFAKLAARLYRKALARQLGVAA [MMI-0400] | 87 | 7 | 85 | 101 | 89 | 98 | 76 | 37 | 61 | 93 | 31 | 41 | 35 | 48 | 18 | 52 | 40 |  | 31
4 | YARAAARQARAKALNRQLGVA (Mammalian) [MMI-0200] |  | 39 | 98 | 83 | 98 |  | 56 | 92 | 97 | 110 | 149 | 99 | 118 | 96 | 99 | 88 | 108 |  | 118
5 | HRRIKAWLKKIKALARQLGVAA (Mammalian) [MMI-0500] | 65 | 9 | 49 | 93 | 86 | −1 | 59 | 14 | 0 | 135 | 90 | 12 | 30 | 27 | 17 | 14 | 40 |  | 218
